± gives the standard deviation of the averaged measurements.
Legend:
Saccharomyces cerevisiae [1] = assay: protein stability index of tFT-peptide fusion (C-terminal peptide) (PSI (0-1 scale)); higher = more stable (slower turnover)
Experimental: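 MPS profiling in S. cerevisiae of the tFT-X12 degron library: putative degron peptides plus stable controls, 12 aa, fused to the C-terminus of a sfGFP-mCherry timer. Cells are FACS-sorted into 8 mCherry/sfGFP bins and deep-sequenced. PSI runs from 0 (unstable) to 1 (stable). Backgrounds are wild type, das1Δ and doa10Δ at 30 °C, and wild type, das1Δ, cdc34-1 and cdc53-1 at 37 °C; 2-3 technical replicates each.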

Saccharomyces cerevisiae [2] = assay: as above; details: genetic background: wild type; temperature: 30 C
[3] = genetic background: cdc34-1, temperature: 37 C
[4] = genetic background: cdc53-1, temperature: 37 C
[5] = genetic background: das1 deletion, temperature: 30 C
[6] = genetic background: das1 deletion, temperature: 37 C
[7] = genetic background: doa10 deletion, temperature: 30 C
[8] = genetic background: wild type, temperature: 30 C
[9] = genetic background: wild type, temperature: 37 C
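Also: PSI is a weighted mean of sequencing reads over stability bins, variants kept only with over 10 reads, mCherry proximal and sfGFP distal, peptide attached via GGGS linker.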

Row | Sequence | protein stability index (Saccharomyces cerevisiae [1]; [3]) | protein stability index (Saccharomyces cerevisiae [1]; [4]) | protein stability index (Saccharomyces cerevisiae [1]; [5]) | protein stability index (Saccharomyces cerevisiae [1]; [6]) | protein stability index (Saccharomyces cerevisiae [1]; [7]) | protein stability index (Saccharomyces cerevisiae [1]; [8]) | protein stability index (Saccharomyces cerevisiae [1]; [9]) | protein stability index (Saccharomyces cerevisiae [2])
1 | LFVFVLAGFCCV | 0.352 ± 0.0073 | 0.436 ± 0.017 | 0.32 ± 0.025 | 0.485 ± 0.011 | 0.287 ± 0.0059 | 0.308 ± 0.039 | 0.432 ± 0.041 | 0.381 ± 0.0073
2 | LFVPVFSFGFVC | 0.485 ± 0.0071 | 0.558 ± 0.0077 | 0.415 ± 0.027 | 0.589 ± 0.009 | 0.121 ± 0.02 | 0.145 ± 0.014 | 0.237 ± 0.015 | 0.226 ± 0.011
3 | LFWWCMVFISLI | 0.3069 ± 0.0013 | 0.37 ± 0.015 | 0.285 ± 0.041 | 0.413 ± 0.0096 | 0.212 ± 0.017 | 0.231 ± 0.029 | 0.3395 ± 0.00099 | 0.3 ± 0.019
4 | LFYVCPFVCFLC | 0.554 ± 0.044 | 0.6288 ± 0.001 | 0.516 ± 0.017 | 0.61052 ± 9.9e-05 | 0.307 ± 0.0078 | 0.335 ± 0.026 | 0.438 ± 0.033 | 0.324 ± 0.058
5 | LGFFPSPVLCVF | 0.104 ± 0.056 | 0.104 ± 0.027 | 0.197 ± 0.024 | 0.209 ± 0.0036 | 0.171 ± 0.0087 | 0.193 ± 0.018 | 0.175 ± 0.0038 | 0.275 ± 0.02
6 | LGGVGTLVHCFV | 0.615 ± 0.026 | 0.635 ± 0.016 | 0.36 ± 0.022 | 0.607 ± 0.0081 | 0.351 ± 0.013 | 0.375 ± 0.014 | 0.597 ± 0.02 | 0.452 ± 0.053
7 | LGRYHPWLLFLC | 0.261 ± 0.011 | 0.451 ± 0.021 | 0.457 ± 0.035 | 0.614 ± 0.0077 | 0.0687 ± 0.016 | 0.0711 ± 0.025 | 0.104 ± 0.0076 | 0.114 ± 0.027
8 | LHSDHLRIILRI | 0.5966 ± 0.0013 | 0.63 ± 0.036 | 0.567 ± 0.036 | 0.659 ± 0.036 | 0.382 ± 0.018 | 0.376 ± 0.0098 | 0.576 ± 0.022 | 0.514 ± 0.023
9 | LIAGTRRIPLFI | 0.593 ± 0.048 | 0.638 ± 0.022 | 0.515 ± 0.043 | 0.665 ± 0.0049 | 0.225 ± 0.0037 | 0.261 ± 0.053 | 0.466 ± 0.015 | 0.406 ± 0.039
10 | LISGVCLRVKVG | 0.55 ± 0.031 | 0.597 ± 0.017 | 0.452 ± 0.029 | 0.6276 ± 0.00027 | 0.16 ± 0.016 | 0.193 ± 0.015 | 0.3637 ± 0.0019 | 0.346 ± 0.046
11 | LKFSLLLPVQVI | 0.327 ± 0.014 | 0.3735 ± 0.0026 | 0.301 ± 0.03 | 0.403 ± 0.0053 | 0.253 ± 0.0088 | 0.283 ± 0.025 | 0.337 ± 0.0053 | 0.3606 ± 0.0013
12 | LLGHLFTMLVIY | 0.211 ± 0.18 | 0.157 ± 0.023 | 0.286 ± 0.053 | 0.366 ± 0.0077 | 0.397 ± 0.0055 | 0.234 ± 0.019 | 0.311 ± 0.012 | 0.308 ± 0.014
13 | LLLLRCLWISHA | 0.324 ± 0.053 | 0.441 ± 0.029 | 0.319 ± 0.039 | 0.5121 ± 0.0012 | 0.125 ± 0.019 | 0.145 ± 0.026 | 0.258 ± 0.0082 | 0.244 ± 0.015
14 | LLPLLFFFLCLP | 0.592 ± 0.058 | 0.584 ± 0.0088 | 0.495 ± 0.035 | 0.5602 ± 0.0049 | 0.462 ± 0.006 | 0.452 ± 0.02 | 0.529 ± 0.014 | 0.4989 ± 0.0038
15 | LLPSPLLLYSLS | 0.556 ± 0.03 | 0.578 ± 0.019 | 0.434 ± 0.022 | 0.6022 ± 0.0024 | 0.3814 ± 0.0018 | 0.412 ± 0.017 | 0.562 ± 0.015 | 0.451 ± 0.028
16 | LLRLCGFPLGVG | 0.466 ± 0.027 | 0.54 ± 0.0086 | 0.488 ± 0.014 | 0.55 ± 0.0049 | 0.41 ± 0.014 | 0.4004 ± 0.002 | 0.51 ± 0.017 | 0.4497 ± 0.00073
17 | LLRLPLLALLFV | 0.236 ± 0.028 | 0.227 ± 0.0089 | 0.233 ± 0.026 | 0.356 ± 0.0077 | 0.337 ± 0.02 | 0.222 ± 0.033 | 0.324 ± 0.016 | 0.111 ± 0.0047
18 | LLSAFPYLPVFA | 0.277 ± 0.025 | 0.326 ± 0.048 | 0.251 ± 0.02 | 0.3941 ± 0.0035 | 0.2141 ± 0.00033 | 0.244 ± 0.022 | 0.373 ± 0.044 | 0.337 ± 0.0066
19 | LLVRSFIFPLVY | 0.3906 ± 0.0039 | 0.428 ± 0.018 | 0.294 ± 0.053 | 0.482 ± 0.018 | 0.282 ± 0.016 | 0.289 ± 0.013 | 0.441 ± 0.012 | 0.367 ± 0.034
20 | LLVVGPVRLVVH | 0.214 ± 0.019 | 0.259 ± 0.0027 | 0.201 ± 0.034 | 0.346 ± 0.017 | 0.168 ± 0.0078 | 0.18 ± 0.026 | 0.321 ± 0.012 | 0.262 ± 0.023

Row | Sequence | protein stability index (Saccharomyces cerevisiae [1]; [3]) | protein stability index (Saccharomyces cerevisiae [1]; [4]) | protein stability index (Saccharomyces cerevisiae [1]; [5]) | protein stability index (Saccharomyces cerevisiae [1]; [6]) | protein stability index (Saccharomyces cerevisiae [1]; [7]) | protein stability index (Saccharomyces cerevisiae [1]; [8]) | protein stability index (Saccharomyces cerevisiae [1]; [9]) | protein stability index (Saccharomyces cerevisiae [2])
21 | LLYPSKFCITAI | 0.506 ± 0.024 | 0.559 ± 0.03 | 0.413 ± 0.032 | 0.575 ± 0.016 | 0.248 ± 0.007 | 0.272 ± 0.027 | 0.431 ± 0.0044 | 0.374 ± 0.016
22 | LLYYMPELLILT | 0.152 ± 0.0021 | 0.145 ± 0.028 | 0.208 ± 0.0081 | 0.273 ± 0.0049 | 0.242 ± 0.013 | 0.199 ± 0.025 | 0.264 ± 0.007 | 0.28 ± 0.018
23 | LMLIPRLLVGAH | 0.181 ± 0.034 | 0.172 ± 0.0025 | 0.184 ± 0.029 | 0.2958 ± 0.0022 | 0.152 ± 0.008 | 0.181 ± 0.018 | 0.2523 ± 0.0011 | 0.291 ± 0.014
24 | LPFFSFSPWWFY | 0.773 ± 0.042 | 0.808 ± 0.026 | 0.736 ± 0.04 | 0.817 ± 0.029 | 0.209 ± 0.036 | 0.24 ± 0.036 | 0.497 ± 0.018 | 0.262 ± 0.033
25 | LPIFWVWFSVFR | 0.232 ± 0.012 | 0.243 ± 0.022 | 0.269 ± 0.035 | 0.445 ± 0.027 | 0.334 ± 0.027 | 0.257 ± 0.034 | 0.3973 ± 0.0026 | 0.349 ± 0.0062
26 | LPLHPHRSRYLV | 0.593 ± 0.033 | 0.691 ± 0.018 | 0.674 ± 0.019 | 0.702 ± 0.031 | 0.101 ± 0.015 | 0.0982 ± 0.0075 | 0.203 ± 0.02 | 0.21 ± 0.021
27 | LPPPTPRSVLLN | 0.644 ± 0.039 | 0.737 ± 0.034 | 0.672 ± 0.019 | 0.732 ± 0.015 | 0.296 ± 0.019 | 0.315 ± 0.04 | 0.5546 ± 0.0016 | 0.51 ± 0.076
28 | LPSPPSSPPLRP | 0.6542 ± 0.0027 | 0.57161 ± 0.00026 | 0.597 ± 0.0064 | 0.732 ± 0.045 | 0.5877 ± 0.0035 | 0.599 ± 0.017 | 0.701 ± 0.039 | 0.508 ± 0.019
29 | LPSRWVPLPTPA | 0.5362 ± 0.0003 | 0.569 ± 0.024 | 0.407 ± 0.037 | 0.59 ± 0.004 | 0.38 ± 0.016 | 0.413 ± 0.022 | 0.56219 ± 0.00016 | 0.508 ± 0.016
30 | LPTLDCPLHRLF | 0.694 ± 0.026 | 0.8 ± 0.0093 | 0.641 ± 0.012 | 0.7615 ± 0.0076 | 0.674 ± 0.016 | 0.654 ± 0.0035 | 0.733 ± 0.016 | 0.559 ± 0.084
31 | LQCVYFVFFICF | 0.2682 ± 0.0023 | 0.4 ± 0.016 | 0.266 ± 0.018 | 0.412 ± 0.0067 | 0.235 ± 0.0054 | 0.251 ± 0.015 | 0.37 ± 0.032 | 0.399 ± 0.051
32 | LQVPTLRLFVFF | 0.584 ± 0.029 | 0.724 ± 0.033 | 0.577 ± 0.02 | 0.698 ± 0.021 | 0.197 ± 0.0017 | 0.224 ± 0.012 | 0.398 ± 0.026 | 0.3 ± 0.0049
33 | LRMSLLVFLLFA | 0.312 ± 0.03 | 0.407 ± 0.033 | 0.261 ± 0.033 | 0.4419 ± 0.0016 | 0.249 ± 0.021 | 0.231 ± 0.025 | 0.399 ± 0.0072 | 0.314 ± 0.054
34 | LRQKIIYWWLWL | 0.478 ± 0.019 | 0.488 ± 0.021 | 0.472 ± 0.03 | 0.613 ± 0.008 | 0.255 ± 0.011 | 0.245 ± 0.011 | 0.3523 ± 0.001 | 0.313 ± 0.0047
35 | LRVLSVVRLSVW | 0.479 ± 0.0067 | 0.545 ± 0.023 | 0.407 ± 0.034 | 0.545 ± 0.011 | 0.382 ± 0.02 | 0.4 ± 0.025 | 0.54567 ± 0.00028 | 0.468 ± 0.055
36 | LSARVFCFWFFS | 0.586 ± 0.018 | 0.635 ± 0.011 | 0.549 ± 0.05 | 0.677 ± 0.028 | 0.187 ± 0.017 | 0.201 ± 0.011 | 0.2852 ± 0.0022 | 0.31 ± 0.024
37 | LSFLCFSTVLHC | 0.557 ± 0.0096 | 0.606 ± 0.019 | 0.511 ± 0.017 | 0.58 ± 0.019 | 0.46 ± 0.022 | 0.462 ± 0.03 | 0.54302 ± 0.00015 | 0.503 ± 0.073
38 | LSFLFFRLCSFF | 0.487 ± 0.066 | 0.551 ± 0.0081 | 0.568 ± 0.034 | 0.668 ± 0.021 | 0.157 ± 0.0029 | 0.158 ± 0.017 | 0.184 ± 0.04 | 0.203 ± 0.061
39 | LSLLCFVASVVA | 0.168 ± 0.0083 | 0.195 ± 0.005 | 0.238 ± 0.027 | 0.292 ± 0.015 | 0.1585 ± 0.00028 | 0.194 ± 0.021 | 0.224 ± 0.013 | 0.275 ± 0.016
